Source: patent US20210077638A1

How the values were obtained:
[1] = molecular target: human MET on EBC-1, NCI-H441 and NCI-H358 cells (human) (UniProt P08581); assay: saturation radioligand binding (antibody binding capacity) assay with 89Zr-DFO-Comp1 on EBC-1 cells, 4 C, 45 min, gamma counting; x axis is total antibody dosed, not free
[2] = molecular target: human MET on EBC-1, NCI-H441 and NCI-H358 cells (human) (UniProt P08581); assay: saturation radioligand binding on NCI-H441 cells, 4 C, single-site fit, n=4
[3] = molecular target: human MET on EBC-1, NCI-H441 and NCI-H358 cells (human) (UniProt P08581); assay: saturation radioligand binding on EBC-1 cells, 4 C, single-site fit, n=4
[4] = molecular target: human MET on EBC-1, NCI-H441 and NCI-H358 cells (human) (UniProt P08581); assay: saturation radioligand binding (antibody binding capacity) assay with 89Zr-DFO-Comp1 on NCI-H441 cells, 4 C, 45 min, gamma counting; x axis is total antibody dosed, not free
[5] = molecular target: human MET on EBC-1, NCI-H441 and NCI-H358 cells (human) (UniProt P08581); assay: saturation radioligand binding on NCI-H358 cells, 4 C, single-site fit, n=2

human MET on EBC-1, NCI-H441 and NCI-H358 cells (human), sequence (P08581 25-1390): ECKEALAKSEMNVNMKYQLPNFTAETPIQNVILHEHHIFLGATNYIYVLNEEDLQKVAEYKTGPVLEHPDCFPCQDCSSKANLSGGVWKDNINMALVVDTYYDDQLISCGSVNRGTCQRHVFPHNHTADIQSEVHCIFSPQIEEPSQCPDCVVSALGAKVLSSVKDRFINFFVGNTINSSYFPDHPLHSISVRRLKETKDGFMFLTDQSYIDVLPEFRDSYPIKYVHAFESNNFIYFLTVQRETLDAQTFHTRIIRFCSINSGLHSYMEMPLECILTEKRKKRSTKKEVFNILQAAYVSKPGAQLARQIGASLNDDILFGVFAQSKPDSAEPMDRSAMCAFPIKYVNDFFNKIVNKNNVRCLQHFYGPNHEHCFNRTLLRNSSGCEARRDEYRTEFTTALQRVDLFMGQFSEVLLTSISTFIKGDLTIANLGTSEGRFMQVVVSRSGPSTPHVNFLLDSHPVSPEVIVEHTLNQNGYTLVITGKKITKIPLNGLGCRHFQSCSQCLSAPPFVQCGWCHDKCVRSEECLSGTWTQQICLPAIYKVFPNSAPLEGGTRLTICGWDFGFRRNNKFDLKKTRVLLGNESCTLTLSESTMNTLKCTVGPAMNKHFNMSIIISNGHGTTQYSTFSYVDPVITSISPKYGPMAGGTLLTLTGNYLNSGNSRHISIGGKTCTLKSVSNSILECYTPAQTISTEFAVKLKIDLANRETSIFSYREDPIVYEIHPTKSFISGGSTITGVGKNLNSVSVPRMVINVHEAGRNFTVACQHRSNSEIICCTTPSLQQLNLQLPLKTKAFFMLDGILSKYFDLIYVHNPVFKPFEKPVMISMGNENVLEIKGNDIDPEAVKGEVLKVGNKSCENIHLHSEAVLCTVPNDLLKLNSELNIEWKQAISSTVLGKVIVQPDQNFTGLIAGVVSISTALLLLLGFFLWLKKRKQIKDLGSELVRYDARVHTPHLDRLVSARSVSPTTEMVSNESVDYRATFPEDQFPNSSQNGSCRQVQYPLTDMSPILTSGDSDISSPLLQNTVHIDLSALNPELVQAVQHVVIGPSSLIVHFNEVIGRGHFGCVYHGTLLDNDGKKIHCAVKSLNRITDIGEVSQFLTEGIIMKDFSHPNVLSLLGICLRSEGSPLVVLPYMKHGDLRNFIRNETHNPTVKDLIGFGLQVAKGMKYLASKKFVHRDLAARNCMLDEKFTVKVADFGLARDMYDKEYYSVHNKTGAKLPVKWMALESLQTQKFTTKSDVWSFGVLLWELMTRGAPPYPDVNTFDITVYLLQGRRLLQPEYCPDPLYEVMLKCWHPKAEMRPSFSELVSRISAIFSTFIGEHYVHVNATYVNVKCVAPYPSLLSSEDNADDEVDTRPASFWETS

EC50 (read off the curve) [1]: 4 nM
ABC (antibody binding capacity) [2]: 62000 per cell
ABC (antibody binding capacity) [3]: 250000 per cell
EC50 (read off the curve) [4]: 3 nM
ABC (antibody binding capacity) [5]: 21000 per cell
B1: 89Zr-DFO-anti-Met single-arm comparator antibody (Comp1; Onartuzumab) (antibody, INN chains, looked up, V domains shown)
VH: EVQLVESGGGLVQPGGSLRLSCAASGYTFTSYWLHWVRQAPGKGLEWVGMIDPSNSDTRFNPNFKDRFTISADTSKNTAYLQMNSLRAEDTAVYYCATYRSYVTPLDYWGQGTLVTVSS
VL: DIQMTQSPSSLSASVGDRVTITCKSSQSLLYTSSQKNYLAWYQQKPGKAPKLLIYWASTRESGVPSRFSGSGSGTDFTLTISSLQPEDFATYYCQQYYAYPWTFGQGTKVEIK
modifications: one-armed monovalent 89Zr-DFO label
